Reference: the Immune Epitope Database (IEDB)

Key:
HLA-B*44:02 = assay: IEDB peptide-MHC binding, purified MHC/competitive/radioactivity; filed as Kd, often an IC50 or EC50 that approximates it; ≥ and ≤ were set here for values at or beyond the usual limits of such assays
HLA-B*44:03 = assay: as above
HLA-A*02:01 [1] = assay: IEDB peptide-MHC binding, purified MHC/competitive/fluorescence; ≥ and ≤ were set here for values at or beyond the usual limits of such assays
HLA-A*24:02 [2] = assay: as above
HLA-B*53:01 = assay: IEDB peptide-MHC binding, purified MHC/competitive/radioactivity; filed as Kd, often an IC50 or EC50 that approximates it; ≥ and ≤ were set here for values at or beyond the usual limits of such assays
HLA-A*01:01 = assay: as above
HLA-A*03:01 [3] = assay: IEDB peptide-MHC binding, purified MHC/direct/fluorescence; filed as Kd, often an IC50 or EC50 that approximates it; ≥ and ≤ were set here for values at or beyond the usual limits of such assays
HLA-A*31:01 [4] = assay: as above
HLA-A*30:01 = assay: IEDB peptide-MHC binding, purified MHC/competitive/radioactivity; filed as Kd, often an IC50 or EC50 that approximates it; ≥ and ≤ were set here for values at or beyond the usual limits of such assays
HLA-B*35:01 = assay: as above; conditions: source organism: Dengue virus 4 Philippines/H241/1956
HLA-A*02:01 [5] = assay: IEDB peptide-MHC binding, purified MHC/direct/fluorescence; filed as Kd, often an IC50 or EC50 that approximates it; ≥ and ≤ were set here for values at or beyond the usual limits of such assays; conditions: source organism: Haemophilus influenzae
HLA-B*15:01 = assay: as above; conditions: source organism: Haemophilus influenzae
HLA-A*33:01 = assay: IEDB peptide-MHC binding, purified MHC/competitive/radioactivity; filed as Kd, often an IC50 or EC50 that approximates it; ≥ and ≤ were set here for values at or beyond the usual limits of such assays
HLA-A*68:01 = assay: as above
HLA-A*03:01 [6] = assay: as above
HLA-A*31:01 [7] = assay: as above
HLA-A*29:02 = assay: as above
HLA-A*32:01 = assay: as above
HLA-A*26:01 = assay: as above
HLA-A*30:02 = assay: as above
HLA-A*02:01 [8] = assay: IEDB peptide-MHC binding, purified MHC/competitive/fluorescence; filed as Kd, often an IC50 or EC50 that approximates it; ≥ and ≤ were set here for values at or beyond the usual limits of such assays; conditions: source organism: Vaccinia virus WR 65-16
HLA-A*24:02 [9] = assay: IEDB peptide-MHC binding, purified MHC/competitive/radioactivity; filed as Kd, often an IC50 or EC50 that approximates it; ≥ and ≤ were set here for values at or beyond the usual limits of such assays; conditions: source organism: Lymphocytic choriomeningitis virus (strain Armstrong)
HLA-A*23:01 = assay: as above; conditions: source organism: Lymphocytic choriomeningitis virus (strain Armstrong)
[10] = source organism: Dengue virus 1 Brazil/97-11/1997
[11] = source organism: Zaire ebolavirus
[12] = source organism: Dengue virus 1 Singapore/S275/1990
[13] = source organism: Dengue virus 3 Martinique/1243/1999
[14] = source organism: Sudan ebolavirus
[15] = source organism: Giardia lamblia ATCC 50803
[16] = source organism: Vaccinia virus WR
[17] = source organism: Dengue virus 4 Philippines/H241/1956
[18] = source organism: Dengue virus 2 Jamaica/1409/1983
[19] = source organism: Vaccinia virus
[20] = source organism: Haemophilus influenzae
[21] = source organism: Mammarenavirus machupoense
[22] = source organism: Mammarenavirus juninense
[23] = source organism: Lymphocytic choriomeningitis virus (strain Armstrong)
[24] = source organism: Entamoeba histolytica HM-1:IMSS

LENIMWKQI
Kd (HLA-B*44:02; [10]): 115 nM
Kd (HLA-B*44:03; [10]): 204 nM

LGVIHNSTL
IC50 (HLA-A*02:01 [1]; [11]): 69100 nM
IC50 (HLA-A*24:02 [2]; [11]): 50900 nM

LTDFQSHQLW
Kd (HLA-B*53:01; [12]): 1580 nM
Kd (HLA-A*01:01; [12]): 3680 nM

MEDKTPVTTW
Kd (HLA-B*44:02; [13]): 115 nM
Kd (HLA-B*44:03; [13]): 180 nM

MEGLSLLQL
IC50 (HLA-A*02:01 [1]; [14]): ≥ 88900 nM
IC50 (HLA-A*24:02 [2]; [14]): 22300 nM

MFLITENKIW
Kd (HLA-B*53:01; source organism: Dengue virus 1 Nauru/West Pac/1974): 8870 nM

MNQERRSLR
Kd (HLA-A*03:01 [3]; [15]): ≥ 20000 nM
Kd (HLA-A*31:01 [4]; [15]): 118 nM

MSRRYSREK
Kd (HLA-A*30:01; [16]): 1.31 nM

MTTEDMLKVW
Kd (HLA-B*53:01; [17]): 1150 nM

NHALSELPET
Kd (HLA-A*30:01; [18]): 1240 nM

NIGNTKSNI
IC50 (HLA-A*02:01 [1]; [19]): ≥ 662000 nM
IC50 (HLA-A*24:02 [2]; [19]): ≥ 176000 nM

NPRLCTREEF
Kd (HLA-B*35:01): 892 nM
Kd (HLA-B*53:01; [17]): 197 nM

PYFGPAAEG
IC50 (HLA-A*24:02 [2]; [11]): 13000 nM

RAREQISNL
Kd (HLA-A*30:01; source organism: Cowpox virus): 2.73 nM

REEEEAGVLW
Kd (HLA-B*44:02; [18]): 51.2 nM
Kd (HLA-B*44:03; [18]): 36.1 nM

RFRFRSVYG
Kd (HLA-A*30:01; [16]): 0.357 nM

RMGVKSQLL
Kd (HLA-A*02:01 [5]): 3130 nM
Kd (HLA-A*03:01 [3]; [20]): 18000 nM
Kd (HLA-A*31:01 [4]; [20]): 2070 nM
Kd (HLA-B*15:01): 1280 nM

RTSSDPGTN
IC50 (HLA-A*24:02 [2]; [11]): ≥ 98100 nM

SIQKNTIFK
Kd (HLA-A*30:01; [21]): 62.6 nM
Kd (HLA-A*33:01; [21]): ≥ 22900 nM
Kd (HLA-A*68:01; [21]): 162 nM
Kd (HLA-A*03:01 [6]; [21]): 10.4 nM
Kd (HLA-A*31:01 [7]; [21]): 1890 nM

SIRRNLALK
Kd (HLA-A*30:01; [16]): 12.4 nM

SVIGTFVAEF
Kd (HLA-A*29:02; [22]): 169 nM
Kd (HLA-A*32:01; [22]): 195 nM
Kd (HLA-A*30:01; [22]): 2420 nM
Kd (HLA-A*01:01; [22]): 3580 nM
Kd (HLA-A*26:01; [22]): 3.37 nM
Kd (HLA-A*30:02; [22]): 110 nM

TARSNNRLA
Kd (HLA-A*30:01; [16]): 57.6 nM

TDFQSHQLW
Kd (HLA-B*44:02; [12]): 37 nM

TLRAAMISL
Kd (HLA-A*30:01; [16]): 0.714 nM
Kd (HLA-A*02:01 [8]): 2310 nM

TTYLGPLSCK
Kd (HLA-A*30:01; [23]): 432 nM
Kd (HLA-A*33:01; [23]): 647 nM
Kd (HLA-A*68:01; [23]): 4.63 nM
Kd (HLA-A*03:01 [6]; [23]): 4.47 nM
Kd (HLA-A*31:01 [7]; [23]): 540 nM

TVKDGRLGA
Kd (HLA-A*30:01; [16]): 240 nM

VDNLTYVQL
IC50 (HLA-A*24:02 [2]; [11]): ≥ 117000 nM

VMEITAEWLW
Kd (HLA-B*53:01; source organism: Dengue virus 3 Singapore/8120/1995): 1030 nM

VNPEIDTTI
IC50 (HLA-A*02:01 [1]; [11]): ≥ 358000 nM
IC50 (HLA-A*24:02 [2]; [11]): 16100 nM

VQLESRFTP
IC50 (HLA-A*02:01 [1]; [11]): ≥ 197000 nM
IC50 (HLA-A*24:02 [2]; [11]): 59200 nM

VTEIGRVPSH
Kd (HLA-A*30:01; [13]): ≥ 22900 nM

WFNYLFGGF
IC50 (HLA-A*02:01 [1]; source organism: Variola virus): ≥ 104000 nM
IC50 (HLA-A*24:02 [2]; source organism: Variola virus): 484 nM

WYKVFVPRR
Kd (HLA-A*03:01 [3]; [24]): ≥ 20000 nM
Kd (HLA-A*31:01 [4]; [24]): 102 nM

YEDKVWDKY
Kd (HLA-A*29:02; [23]): ≥ 29900 nM
Kd (HLA-A*32:01; [23]): ≥ 77800 nM
Kd (HLA-A*24:02 [9]): ≥ 77500 nM
Kd (HLA-A*30:01; [23]): ≥ 32200 nM
Kd (HLA-A*01:01; [23]): 7020 nM
Kd (HLA-A*26:01; [23]): ≥ 77900 nM
Kd (HLA-A*30:02; [23]): 2710 nM
Kd (HLA-A*23:01): ≥ 77700 nM

YPKTKLTDW
Kd (HLA-B*53:01; [17]): 1440 nM
